Reference: patent US20070105155A1 (Janssen / Centocor, published 2007)

B1: TRPM8-2 fragment (rat TRPM8 M353-T690) (other)
chain: MVKEKLVRFLPRTVSRLPEEEIESWIKWLKEILESPHLLTVIKMEEAGDEVVSSAISYALYKAFSTNEQDKDNWNGQLKLLLEWNQLDLASDEIFTNDRRWESADLQEVMFTALIKDRPKFVRLFLENGLNLQKFLTNEVLTELFSTHFSTLVYRNLQIAKNSYNDALLTFVWKLVANFRRSFWKEDRSSREDLDVELHDASLTTRHPLQALFIWAILQNKKELSKVIWEQTKGCTLAALGASKLLKTLAKVKNDINAAGESEELANEYETRAVELFTECYSSDEDLAEQLLVYSCEAWGGSNCLELAVEATDQHFIAQPGVQNFLSKQWYGEISRDT
modifications: 35S-methionine labelled
notes: In vitro translated from pAGA3; also called TRPM8-2/pAGA3; rTRPM8-2
B2: TRPM8-9 fragment (rat TRPM8 A172-S352) (other)
chain: AQSKGAWILTGGTHYGLMKYIGEVVRDNTISRNSEENIVAIGIAAWGMVSNRDTLIRNCDDEGHFSAQYIMDDFMRDPLYILDNNHTHLLLVDNGCHGHPTVEAKLRNQLEKYISERTSQDSNYGGKIPIVCFAQGGGRETLKAINTSVKSKIPCVVVEGSGQIADVIASLVEVEDVLTSS
modifications: 35S-methionine labelled
notes: In vitro translated from pAGA3; The forward primer carries an NcoI site (start ATG before A172); also called TRPM8-9/pAGA3; rTRPM8-9
B3: TRPM8-10 fragment (rat TRPM8 D198-S352) (other)
chain: DNTISRNSEENIVAIGIAAWGMVSNRDTLIRNCDDEGHFSAQYIMDDFMRDPLYILDNNHTHLLLVDNGCHGHPTVEAKLRNQLEKYISERTSQDSNYGGKIPIVCFAQGGGRETLKAINTSVKSKIPCVVVEGSGQIADVIASLVEVEDVLTSS
modifications: 35S-methionine labelled
notes: In vitro translated from pAGA3; The forward primer carries an NcoI site (start ATG before D198); also called TRPM8-10/pAGA3; rTRPM8-10
B4: TRPM8-8 fragment (rat TRPM8 M219-S352) (other)
chain: MVSNRDTLIRNCDDEGHFSAQYIMDDFMRDPLYILDNNHTHLLLVDNGCHGHPTVEAKLRNQLEKYISERTSQDSNYGGKIPIVCFAQGGGRETLKAINTSVKSKIPCVVVEGSGQIADVIASLVEVEDVLTSS
modifications: 35S-methionine labelled
notes: In vitro translated from pAGA3; also called TRPM8-8/pAGA3; rTRPM8-8
B5: TRPM8-7 fragment (rat TRPM8 V145-S352) (other)
chain: VISVTGGAKNFALKPRMRKIFSRLIYIAQSKGAWILTGGTHYGLMKYIGEVVRDNTISRNSEENIVAIGIAAWGMVSNRDTLIRNCDDEGHFSAQYIMDDFMRDPLYILDNNHTHLLLVDNGCHGHPTVEAKLRNQLEKYISERTSQDSNYGGKIPIVCFAQGGGRETLKAINTSVKSKIPCVVVEGSGQIADVIASLVEVEDVLTSS
modifications: 35S-methionine labelled
notes: In vitro translated from pAGA3; The forward primer carries an NcoI site (start ATG before V145); also called TRPM8-7/pAGA3; rTRPM8-7

target: GST-CaM fusion protein (Homo sapiens (Human), UniProt P0DP23 2-149); experiment: GST pull-down on agarose-GSH beads, 35S-labelled fragment, SDS/PAGE and autoradiography

Binding result, no binding:
B1, B2, B3, B4

target: T1, GST (UniProt P08515 1-218 = GST); experiment: GST pull-down control (GST alone on beads), autoradiography, FIG. 2C
T1 construct: Negative control bait; also called glutathione S-transferase control
Method: Agarose-GSH beads (50% (vol./vol.)) bound with about 1 μg of GST or GST-CaM were incubated with 10 μl of ³⁵S-labelled TRPM8 fragment for 30 min at room temperature in a final volume of 200 μl of binding buffer. At the end of the incubation, the beads were washed three times with 1.0 ml of binding buffer and resuspended in 20 μl of 2× laemmli's sample loading buffer. Protein(s) bound to the beads, including the GST-CaM fusion protein, and possibly the ³⁵S-labelled TRPM8 fragment that interact with the GST-CaM fusion protein, were separated by SDS/PAGE followed by autoradiography.

T1 sequence (P08515 whole entry): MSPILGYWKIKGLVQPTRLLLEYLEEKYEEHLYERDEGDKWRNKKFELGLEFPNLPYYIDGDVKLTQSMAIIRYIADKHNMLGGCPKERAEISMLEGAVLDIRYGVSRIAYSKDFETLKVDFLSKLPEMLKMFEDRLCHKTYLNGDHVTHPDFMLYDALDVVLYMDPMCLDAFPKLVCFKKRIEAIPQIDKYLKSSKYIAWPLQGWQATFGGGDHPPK

Binding result, no binding:
B5, B2, B3, B4
